{"source": "patent US8343490B2", "about": "“Monoclonal antibody SC104 and derivative thereof specifically binding to a sialyltetraosyl carbohydrate as a potential anti-tumor therapeutic agent” (Cephalon Australia Pty Ltd, priority 2004, dated 2013)", "molecules": {"B1": {"name": "SC104: mouse IgG1 monoclonal antibody specific for a sialyltetraosyl carbohydrate, raised by immunisation with colorectal cancer cell lines (antibody, V domains shown)", "VH": "DVQLQESGPDLVKPSQSLSLTCTVTGYSITSGYSWHWVRQFPGNKMEWMGHIHFSGRPTYNPSLSSRISITRDTSKNQFLLQLKFVTTEDTSTYFCARKGKGSDDGLNYWGQGISVTVSS", "VL": "ENVLTQSPVIMSASPGEKVTMTCSASSSLSYIHWYQQKSRTSPKLWIYDTSNLASGVPGRFSGSGSGNSYSLTISSMEAEDVATYYCFQGSEYPLTFGGGTKLEMT"}}, "key": {"[1]": {"assay": "Blood group antigen ELISA, H type II", "assay_type": "binding", "experimental": "The Lewis ^y hapten and the type I and type II H blood group antigen (Sigma, Poole, Dorset) were dried microtitre plates by overnight incubation at 37° C. Binding of SC104 mab was assayed by ELISA as described above."}, "[2]": {"test_system": "range of tumour cell lines", "assay": "Binding to tumour cell lines by ELISA", "settings": "SC104 1 μg/ml; FIG. 2a", "experimental": "C170, Colo205, MKN45, R1D9, and 791T cells (10^5) were resuspended in 50 μl of SC104 mab (0-20 μg/ml) and incubated on ice for 20 min. After washing the samples 3 times in RPMI/10% FCS cells were incubated with FITC labelled rabbit anti-mouse (1/50: Dako Ltd, Bucks, UK) antibody and incubated on ice for 30 minutes prior to analysis on a FACScan (Becton Dickinson, Sunnyvale, Calif.). Results are expressed as mean linear fluorescence (MLF). • Binding to tumour cells by ELISA. 96-well tissue culture plates were coated with cells at a cell density of 5×10^5 cells/ml (100 μl/well) in 10% foetal bovine serum in RPMI 1640. The plates were incubated overnight at 37° C., 5% CO2, 95% air. The cells were then washed twice in phosphate buffered saline (pH7.3, PBS) prior to being fixed with 0.5% glutaraldehyde in PBS (10 min, 25° C., 100 μl/well). Remaining non-specific binding sites were blocked by incubation for 1 hr with 1% bovine serum albumin (fraction V from Sigma Chemicals Ltd.) in PBS. The cells were washed three times with a washing solution consisting of 0.05% Tween 20 in phosphate buffered saline. Cells were incubated with SC104 (1 μg/ml) for 1 hr at room temperature and then bound antibody detected with goat anti-mouse horse radish peroxidase and ABTS. Results are expressed as absorbance at 405 nm. Results"}, "[3]": {"test_system": "normal colonic extranuclear membranes", "assay": "ELISA on extranuclear membranes of normal colon", "assay_type": "binding", "settings": "one line per patient (1-7)", "experimental": "(§1) • Tumour and normal membrane extract binding. Extranuclear extractions of colorectal and normal colonic membranes were produced and binding of SC104 was assayed by ELISA. Results"}, "[4]": {"test_system": "colorectal tumour extranuclear membranes", "assay": "ELISA on extranuclear membranes of colorectal tumour", "assay_type": "binding", "settings": "one line per patient (1-7)", "experimental": "as §1"}, "C170 tumour cells": {"test_system": "C170 tumour cells", "assay": "Annexin/PI dual colour flow cytometry", "assay_type": "cell-based", "settings": "concentration greater than 10 μg/ml; cells in suspension", "text": "Annexin/PI. Tumour cells ([…]) or appropriate controls for 4 hr at room temperature could then also be stained with FITC labelled annexin and propidium iodide (Sigma, Poole, Dorset) and then analysed by dual colour flow cytometry."}, "colorectal tumours": {"test_system": "colorectal tumours", "assay": "Binding to colorectal tumours (summary statement)"}, "[5]": {"test_system": "colorectal tumour sections", "assay": "Immunoperoxidase staining of frozen colorectal tumour sections (screening)", "assay_type": "binding", "design": "key: −: negative; +: minimal; 2+: strong; 3+: very strong", "experimental": "ELISA. Antibody responses in the serum of immunised mice were assayed by titration using a standard non-competitive ELISA procedure. 96-well tissue culture plates were coated with C170 cells at a cell density of 5×10^5 cells/ml (100 μl/well) in 10% foetal bovine serum in RPMI 1640. The plates were incubated overnight at 37° C., 5% CO2, 95% air. The cells were then washed twice in phosphate buffered saline (pH7.3, PBS) prior to being fixed with 0.5% glutaraldehyde in PBS (10 min, 25° C., 100 μl/well). Remaining non-specific binding sites were blocked by incubation for 1 hr with 1% bovine serum albumin (fraction V from Sigma Chemicals Ltd.) in PBS. The cells were washed three times with a washing solution consisting of 0.05% Tween 20 in phosphate buffered saline before assaying post-boost serum for binding to C170 cells using a non-competitive sandwich ELISA. The pre-immunisation serum was used as a negative control. • Immunohistochemistry. Binding of hybridoma supernatants to tumour tissues was determined by indirect immunoperoxidase staining of frozen colorectal tumour sections. […] The bound antibody was detected with rabbit anti-mouse Ig conjugated to peroxidase (Dako Ltd., Bucks., UK) and following extensive washing the slides were stained with 0.05% diaminobenzidine and 0.01% H2O2 in 0.05M Tris-HCl, pH7.6 and counterstained with haematoxylin. […]"}, "[6]": {"test_system": "frozen tumour tissue sections", "assay": "Immunohistochemistry staining of frozen tumour tissue sections", "assay_type": "binding, Human", "experimental": "• Immunohistochemistry staining of normal and tumour tissues. Human tissues were obtained from an Inveresk approved supplier. Each tissue used was snap frozen in liquid nitrogen and stored at approximately −70° C. (±10° C.). Cryostat sections were cut and placed onto super frost plus slides. All tissue samples were treated with an antigen marker appropriate for each tissue in order to confirm the preservation of antigens in that tissue. The markers used were keratin for epithelial bearing tissues, CD45 for all lymphoid tissues, and desmin for all cardiac and skeletal muscle. Each tissue was examined from three unrelated donors. The method of staining employed was an indirect, 2 or 3-stage method, using secondary and tertiary antibodies together with an avidin-biotin-peroxidase complex. Endogenous peroxidase activity was blocked using hydrogen peroxide. Endogenous biotin was blocked by treating all tissue sections with a sequence of avidin-biotin. When a tertiary antibody was used, all tissue sections were treated with normal swine serum, which inhibits the binding of tertiary antibodies to the tissues. Validation of the immunohistochemical staining method was determined by staining on positive control tissues, the absence on negative controls and the effect of fixation on staining of control tissues. SC104 was tested against 6 donors of colon tumour and one of heart at concentrations of […]. Tissues were fixed in either acetone or neutral buffered formalin. Two samples of colon tumour stained well enough for use as a positive control and there was no staining in heart. […] The lowest concentration of SC104 giving the maximum staining intensity was 1 μg/ml and this concentration was used for subsequent work. Results"}}, "note": "Values joined by “and” are separate entries in the source; they are usually repeats but may differ in a detail not shown here. Equal entries are not always repeated."}
{"molecule": "B1", "values": [{"measurement": "Binding to blood group antigens by ELISA: H blood group Type II", "setting": "[1]", "result": 0.076, "unit": "OD 405 nm"}, {"measurement": "binding to range of tumour cell lines by ELISA", "setting": "[2]", "result": "predominantly bound to cell lines of the gastrointestinal origin"}, {"measurement": "Binding of SC104 mab to extranuclear membranes: Normal colon", "setting": "[3]", "result": "0.217 and 0.042 and 0.066 and 0.035 and 0.139 and 0.001 and 0.068"}, {"measurement": "Binding of SC104 mab to extranuclear membranes: Colorectal Tumour", "setting": "[4]", "result": "0.221 and 0.278 and 0.196 and 0.281 and 0.102 and 0.001 and 0.437"}, {"measurement": "cells staining with PI", "setting": "C170 tumour cells", "result": 75, "unit": "%"}, {"measurement": "cells staining with annexin", "setting": "C170 tumour cells", "result": 30, "unit": "%"}, {"measurement": "cells staining with both annexin and PI", "setting": "C170 tumour cells", "result": 65, "unit": "%"}, {"measurement": "colorectal tumours bound", "setting": "colorectal tumours", "result": 71, "unit": "%"}, {"measurement": "Immunohistochemistry Colorectal Tumour", "setting": "[5]", "result": "3+"}, {"measurement": "Immunoreactivity with frozen tissue sections (binding)", "setting": "[6]; Tumours: Breast", "result": "3/6"}, {"measurement": "Immunoreactivity with frozen tissue sections (binding)", "setting": "[6]; Tumours: Colon", "result": "8/8"}, {"measurement": "Immunoreactivity with frozen tissue sections (binding)", "setting": "[6]; Tumours: Endometrial", "result": "2/2"}, {"measurement": "Immunoreactivity with frozen tissue sections (binding)", "setting": "[6]; Tumours: Lung", "result": 0}, {"measurement": "Immunoreactivity with frozen tissue sections (binding)", "setting": "[6]; Tumours: Oesophageal", "result": "4/4"}, {"measurement": "Immunoreactivity with frozen tissue sections (binding)", "setting": "[6]; Tumours: Ovary", "result": 0}, {"measurement": "Immunoreactivity with frozen tissue sections (binding)", "setting": "[6]; Tumours: Parotid", "result": "2/2"}, {"measurement": "Immunoreactivity with frozen tissue sections (binding)", "setting": "[6]; Tumours: Prostate", "result": 0}, {"measurement": "Immunoreactivity with frozen tissue sections (binding)", "setting": "[6]; Tumours: Renal", "result": 0}, {"measurement": "Immunoreactivity with frozen tissue sections (binding)", "setting": "[6]; Tumours: Stomach", "result": "4/4"}, {"measurement": "Immunoreactivity with frozen tissue sections (binding)", "setting": "[6]; Tumours: Testes", "result": "0/1"}, {"measurement": "lowest concentration giving the maximum staining intensity", "setting": "[6]; colon tumour positive control, neutral buffered formalin", "result": 1, "unit": "µg/mL"}]}
